B1: AB-009814 (antibody, mouse IgG2a, V domains shown)
VH: QVQLQQWGAGLLKPSETLSLTCAVYGGSFSDYYWSWIRQPPGKGLEWIGEVNHRGSINYNPSLKSRVTISVDPSKNQFSLKLTSVTAADTAVYYCAKPLRPHCTNGVCYSGDAFDIWGQGTMVTVAS
VL: SYVLTQPPSVSVAPGQTARITCGGNNIGSKNVHWYQQKPGQAPVLVVYDDSDRPSGIPEQFSGSNSGNTATLTISRVEAGDEADYYCQVWDSSSDHLVFGGGTKLTVL
B2: AB-009812 (antibody, mouse IgG2a, V domains shown)
VH: QVQLQQWGAGLLKPSETLSLTCAVYGGSFSDYYWSWIRQPPGKGLEWIGEVNHSGSINYNNYNPSLKSRVTISVDPSKNQFSLKLTSVTAADTAVYYCAKPLRPHCTNGVCYSGDAFDIWGQGTMVTVAS
VL: SYVLTQPPSVSVAPGQTARITCGGNNIGSKNVHWYQQKPGQAPVLVVYDDSDRPSGIPEQFSGSNSGNTATLTISRVEAGDEADYYCQVWDSSSDHLVFGGGTKLTVL
B3: AB-009813 (antibody, mouse IgG2a, V domains shown)
VH: QVQLQQWGAGLLKPSETLSLTCAVYGGSFSDYYWSWIRQPPGKGLEWIGEVNHAGSINYNNYNPSLKSRVTISVDPSKNQFSLKLTSVTAADTAVYYCAKPLRPHCTNGVCYSGDAFDIWGQGTMVTVAS
VL: SYVLTQPPSVSVAPGQTARITCGGNNIGSKNVHWYQQKPGQAPVLVVYDDSDRPSGIPEQFSGSNSGNTATLTISRVEAGDEADYYCQVWDSSSDHLVFGGGTKLTVL
B4: AB-009815 (antibody, mouse IgG2a, V domains shown)
VH: QVQLQQWGAGLLKPSETLSLTCAVYGGSFSDYYWSWIRQPPGKGLEWIGEVNHRGSINYNNYNPSLKSRVTISVDTSKNQFSLKLTSVTAADTAVYYCAKPLRPHCTNGVCYSGDAFDIWGQGTMVTVAS
VL: SYVLTQPPSVSVAPGQTARITCGGNNIGSKNVHWYQQKPGQAPVLVVYDDSDRPSGIPEQFSGSNSGNTATLTISRVEAGDEADYYCQVWDSSSDHLVFGGGTKLTVL
B5: AB-009816 (antibody, mouse IgG2a, V domains shown)
VH: QVQLQQWGAGLLKPSETLSLTCAVYGGSFSDYYWSWIRQPPGKGLEWIGEVNHRGSINYNNYNPSLKSRVTISVDASKNQFSLKLTSVTAADTAVYYCAKPLRPHCTNGVCYSGDAFDIWGQGTMVTVAS
VL: SYVLTQPPSVSVAPGQTARITCGGNNIGSKNVHWYQQKPGQAPVLVVYDDSDRPSGIPEQFSGSNSGNTATLTISRVEAGDEADYYCQVWDSSSDHLVFGGGTKLTVL
B6: AB-009808 (antibody, mouse IgG2a, V domains shown)
VH: QVQLQQWGAGLLKPSETLSLTCAVYGGSFSDYYWSWIRQPPGKGLEWIGEINHSGSTNYNPSLKSRVTISVDPSKNQFSLKLTSVTAADTAVYYCAKPFRPHCTNGVCYSGDAFDIWGQGTMVTVSS
VL: SYVLTQPPSVSVAPGQTARITCGGNNIGSKNVHWYQQKPGQAPVLVVYDDSDRPSGIPEQFSGSNSGNTATLTISRVEAGDEADYYCQVWDSSSDHLVFGGGTKLTVL
B7: AB-009805 (antibody, V domains shown)
VH: QVQLQQWGAGLLKPSETLSLTCAVYGGSLSDYHWSWIRQPPGKGLEWIGEINHSGSTNYNPSLKSRVTISVDTSKNQFSLKLSSVSAADTAVYYCAKPFRPHCTNGVCHSGDAFDIWGQGTMATVSS
VL: SYVLTQPPSVSVAPGQTARITCGGNNIGSKNVHWYQQKPGQAPVLVVYDDSDRPSGIPEQFSGSNSGNTATLTISRVEAGDEADYYCQVWDSSSDHLVFGGGTKLTVL
B8: AB-009807 (antibody, mouse IgG2a, V domains shown)
VH: QVQLQQWGAGLLKPSETLSLTCAVYGGSFNDYYWSWIRQPPGKGLEWIGEVNHSGSTSYNPSLKSRVTISVDTSKNQFSLKLSSVTAADTAVYYCAKPFRPHCTNGVCYSGDAFDIWGQGTMVTVSS
VL: SYVLTQPPSVSVAPGQTARITCGGNNIGSKNVHWYQQKPGQAPALVVYDDSDRPSGIPEQFSGSNSGNTATLTISRVEAGDEADYYCQVWDSSSDHLVFGGGTKLTVL
B9: AB-008873 (mouse IgG2a format) (antibody, V domains shown)
VH: QVQLQQWGAGLLKPSETLSLTCAVYGGSFSDYYWSWIRQPPGKGLEWIGEVNHRGSINYNNYNPSLKSRVTISVDPSKNQFSLKLTSVTAADTAVYYCAKPLRPHCTNGVCYSGDAFDIWGQGTMVTVAS
VL: SYVLTQPPSVSVAPGQTARITCGGNNIGSKNVHWYQQKPGQAPVLVVYDDSDRPSGIPEQFSGSNSGNTATLTISRVEAGDEADYYCQVWDSSSDHLVFGGGTKLTVLG
B10: AB-010363 (antibody, V domains shown)
VH: QVQLQQWGAGLLKPSETLSLTCAVYGGSFSGYYWSWIRQPPGKGLEWIGEINHRGSINYNNYNPSLKSRVTISVDTSKNQFSLKLSSVTAADTAVYYCAKPLRPHCTNGVCYSGDAFDIWGQGTMVTVAS
VL: SYVLTQPPSVSVAPGQTARITCGGNNIGSKNVHWYQQKPGQAPVLVVYDDSDRPSGIPERFSGSNSGNTATLTISRVEAGDEADYYCQVWDSSSDHVVFGGGTKLTVL
notes: Tested in mIgG2a format
B11: AB-010361 (antibody, mouse IgG2a, V domains shown)
VH: QVQLQQWGAGLLKPSETLSLTCAVYGGSFSGYYWSWIRQPPGKGLEWIGEINHRGSINYNNYNPSLKSRVTISVDTSKNQFSLKLSSVTAADTAVYYCAKPLRPHCTNGVCYSGDAFDIWGQGTMVTVAS
VL: SYVLTQPPSVSVAPGQTARITCGGNNIGSKNVHWYQQKPGQAPVLVVYDDSDRPSGIPEQFSGSNSGNTATLTISRVEAGDEADYYCQVWDSSSDHVVFGGGTKLTVL
notes: Tested with mouse IgG2a constant regions (mIgG2a format)

Biological target: T1, human EphA2 (ephrin receptor A2), on cells (human, UniProt P29317 24-976)
T1 construct: Used for HEK293 transfectants, A549 and other human tumor cell lines
Experiment: flow cytometry on A549 cells
Protocol: (§1) Surface binding of the antibodies to in vitro grown cell lines was assessed by flow cytometry. Tumor cells were detached from their culture plate using Versene and counted. Cells were staining in BSA-containing buffer with primary antibody for 30 minutes at 4° C. with shaking. Following, cells were washed and stained with secondary PE-labeled antibody for 30 minutes at 4° C. with shaking. Before analysis on an Intellicyt iQue3 scanner, cells were counterstained with DAPI. MedFI values from live, single cells was expressed as fold over isotype control.

T1 sequence (P29317 24-976 limits assumed): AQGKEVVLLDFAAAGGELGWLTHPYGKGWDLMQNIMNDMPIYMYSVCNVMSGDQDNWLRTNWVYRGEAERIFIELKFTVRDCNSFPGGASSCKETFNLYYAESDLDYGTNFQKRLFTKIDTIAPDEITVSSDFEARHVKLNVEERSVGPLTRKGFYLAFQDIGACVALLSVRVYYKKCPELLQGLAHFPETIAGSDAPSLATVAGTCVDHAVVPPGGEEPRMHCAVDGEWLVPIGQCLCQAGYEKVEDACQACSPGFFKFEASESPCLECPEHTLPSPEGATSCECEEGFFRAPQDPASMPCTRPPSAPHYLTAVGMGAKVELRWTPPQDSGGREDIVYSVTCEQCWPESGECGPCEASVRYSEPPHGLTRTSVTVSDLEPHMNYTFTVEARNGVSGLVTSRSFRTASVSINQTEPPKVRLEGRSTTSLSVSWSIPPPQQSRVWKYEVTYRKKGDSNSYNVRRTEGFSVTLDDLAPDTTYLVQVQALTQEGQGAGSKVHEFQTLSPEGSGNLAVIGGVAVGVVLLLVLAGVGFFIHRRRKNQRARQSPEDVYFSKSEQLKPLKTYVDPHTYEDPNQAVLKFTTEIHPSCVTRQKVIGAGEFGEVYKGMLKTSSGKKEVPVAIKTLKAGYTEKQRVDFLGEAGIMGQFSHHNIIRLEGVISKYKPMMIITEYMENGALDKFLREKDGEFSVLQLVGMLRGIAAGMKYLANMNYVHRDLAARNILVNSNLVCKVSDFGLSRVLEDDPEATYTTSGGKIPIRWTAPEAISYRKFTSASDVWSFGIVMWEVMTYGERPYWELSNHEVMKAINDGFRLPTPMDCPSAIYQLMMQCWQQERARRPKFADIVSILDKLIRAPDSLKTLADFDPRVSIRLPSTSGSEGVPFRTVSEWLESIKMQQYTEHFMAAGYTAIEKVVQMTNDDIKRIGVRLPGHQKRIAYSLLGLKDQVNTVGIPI

**Q.** For B1, which “Delta (flow)” value is on record?
**A.** 407000

**Q.** And the EC50?
**A.** 11.5 nM

**Q.** B2 was tested. Which “Delta (flow)” value did it give?
**A.** 568000

**Q.** And the EC50?
**A.** 9.6 nM

**Q.** With B3 as the binder, how does the “Delta (flow)” value read?
**A.** 578000

**Q.** And the EC50?
**A.** 6.8 nM

**Q.** How did the “Delta (flow)” value turn out when B4 was run?
**A.** 745000

**Q.** What about the EC50 of the same binder?
**A.** 5.5 nM

**Q.** For B5, which “Delta (flow)” value is on record?
**A.** 670000

**Q.** And the EC50?
**A.** 5.5 nM

Biological target: T1, human EphA2 (ephrin receptor A2), on …
Experiment: flow cytometry binding on A549 cells
Protocol: as §1

**Q.** How did the “Flow Delta activity (MedFI)” value turn out when B6 was run?
**A.** 29500 MedFI

**Q.** Which “Flow Delta activity (MedFI)” value does the source give for B7 here?
**A.** 75100 MedFI

**Q.** How did the “Flow Delta activity (MedFI)” value turn out when B8 was run?
**A.** 12700 MedFI

Biological target: T2, C-terminally His-tagged hEphA2-FN2 (Thr437-Asn534+His tag) (human, UniProt P29317 437-534)
T2 construct: SPR analyte; also called FN2 domain of hEphA2
Experiment: SPR Biacore T200, 25 C, mIgG2a captured by anti-mouse Fc, FN2-His as analyte, steady-state fit, monovalent
Protocol: Binding of antibodies to the FN2 domain of hEphA2 was measured using the Biacore® T200 SPR system at 25° C. using HBS-EP+ buffer (0.01 M HEPES pH 7.4, 0.15 M NaCl, 3 mM EDTA, 0.005% v/v Surfactant P20). Antibodies in mIgG2a format were captured at levels between 475-715 RU via an anti-mouse Fc antibody immobilized to a CM5 chip. Binding was assessed using a titration of C-terminally His-tagged hEphA2-FN2 (Thr437-Asn534+His tag) associated for 30 s or 75 s at 30 uL/min. Data was double-reference subtracted using both a surface without captured antibody and from injections of HBS-EP+ buffer. The equilibrium response was measured at 4 seconds before the end of association with a window of 5 seconds and fit using the Biacore T200 Evaluation Software 3.1 with the Steady State Affinity Model.

T2 sequence (P29317 437-534 limits assumed): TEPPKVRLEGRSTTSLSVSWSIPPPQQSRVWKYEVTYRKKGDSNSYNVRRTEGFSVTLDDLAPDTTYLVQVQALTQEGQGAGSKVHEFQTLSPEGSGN

**Q.** B9 was tested. Which Kd did it give?
**A.** 2260 nM

**Q.** For B10, which Kd is on record?
**A.** 1310 nM

**Q.** For B11, which Kd is on record?
**A.** 1110 nM
